In patent publication US20230167164A1 (IMMUNOWAKE, published 2023):

T1: human IL-2 receptor (human, UniProt P01589 22-272; P14784 27-551; P31785 23-369)
T1 sequence (looked up) 1: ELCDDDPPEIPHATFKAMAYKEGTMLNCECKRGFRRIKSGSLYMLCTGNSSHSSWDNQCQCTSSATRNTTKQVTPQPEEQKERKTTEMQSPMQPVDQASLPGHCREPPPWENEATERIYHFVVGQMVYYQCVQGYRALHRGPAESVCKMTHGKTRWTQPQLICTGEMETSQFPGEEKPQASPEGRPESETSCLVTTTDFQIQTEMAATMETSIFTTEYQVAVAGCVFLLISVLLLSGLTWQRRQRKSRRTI
T1 sequence (looked up) 2: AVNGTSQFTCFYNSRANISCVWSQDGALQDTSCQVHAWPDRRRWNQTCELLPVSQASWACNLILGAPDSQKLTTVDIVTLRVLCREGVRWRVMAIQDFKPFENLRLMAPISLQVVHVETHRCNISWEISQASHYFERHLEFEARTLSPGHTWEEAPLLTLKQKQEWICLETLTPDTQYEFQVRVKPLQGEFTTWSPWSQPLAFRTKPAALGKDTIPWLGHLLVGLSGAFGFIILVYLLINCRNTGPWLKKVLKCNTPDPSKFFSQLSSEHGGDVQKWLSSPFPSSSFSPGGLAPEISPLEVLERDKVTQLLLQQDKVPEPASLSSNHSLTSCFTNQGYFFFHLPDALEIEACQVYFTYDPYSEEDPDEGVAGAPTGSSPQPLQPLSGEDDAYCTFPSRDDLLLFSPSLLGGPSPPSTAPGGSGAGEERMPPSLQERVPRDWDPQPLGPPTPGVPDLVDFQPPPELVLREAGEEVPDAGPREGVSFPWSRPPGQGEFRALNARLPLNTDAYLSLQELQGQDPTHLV
T1 sequence (looked up) 3: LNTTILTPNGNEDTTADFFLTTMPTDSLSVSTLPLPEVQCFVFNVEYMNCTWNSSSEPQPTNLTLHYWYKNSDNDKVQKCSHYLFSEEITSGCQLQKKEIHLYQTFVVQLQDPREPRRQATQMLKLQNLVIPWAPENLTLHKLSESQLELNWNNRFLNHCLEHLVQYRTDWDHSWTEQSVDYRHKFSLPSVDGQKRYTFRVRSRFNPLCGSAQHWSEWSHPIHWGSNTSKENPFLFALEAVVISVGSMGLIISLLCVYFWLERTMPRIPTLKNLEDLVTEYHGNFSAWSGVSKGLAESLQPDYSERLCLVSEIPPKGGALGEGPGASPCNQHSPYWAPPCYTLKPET


Legend:
Assay in all cases: cell-based or functional assay
[1] = molecular target: human PD-1 overexpressed on HEK-Blue reporter cells (human, UniProt Q15116 25-288)
[2] = molecular target: T1, human IL-2 receptor
[3] = molecular target: human IL-12 receptor complex (human, UniProt P42701 24-662; Q99665 24-862)
human IL-12 receptor complex, sequence (Q99665 24-862, chain 2 of 2, other chains not shown): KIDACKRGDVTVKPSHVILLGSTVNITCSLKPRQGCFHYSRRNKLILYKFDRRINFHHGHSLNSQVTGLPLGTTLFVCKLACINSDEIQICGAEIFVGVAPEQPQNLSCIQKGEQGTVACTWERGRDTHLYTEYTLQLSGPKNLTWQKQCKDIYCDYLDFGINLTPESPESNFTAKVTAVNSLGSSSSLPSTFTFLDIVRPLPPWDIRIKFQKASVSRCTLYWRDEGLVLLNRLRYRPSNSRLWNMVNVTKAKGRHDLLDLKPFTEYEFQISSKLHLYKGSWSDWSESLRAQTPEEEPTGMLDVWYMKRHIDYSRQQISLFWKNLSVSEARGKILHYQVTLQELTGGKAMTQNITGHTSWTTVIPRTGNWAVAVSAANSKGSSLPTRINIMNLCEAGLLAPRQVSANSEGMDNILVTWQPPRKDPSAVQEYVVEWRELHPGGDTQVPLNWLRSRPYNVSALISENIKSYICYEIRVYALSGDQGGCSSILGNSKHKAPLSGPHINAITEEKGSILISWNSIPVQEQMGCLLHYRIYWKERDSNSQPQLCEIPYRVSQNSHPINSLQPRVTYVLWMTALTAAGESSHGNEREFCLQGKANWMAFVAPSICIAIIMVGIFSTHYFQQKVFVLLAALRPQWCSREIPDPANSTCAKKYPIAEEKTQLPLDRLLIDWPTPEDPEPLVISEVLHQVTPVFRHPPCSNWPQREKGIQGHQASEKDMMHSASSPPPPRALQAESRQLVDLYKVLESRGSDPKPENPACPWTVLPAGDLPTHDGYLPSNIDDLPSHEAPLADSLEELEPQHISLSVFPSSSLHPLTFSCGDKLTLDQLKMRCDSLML

human PD-1 overexpressed on HEK-Blue reporter cells, sequence (Q15116 25-288): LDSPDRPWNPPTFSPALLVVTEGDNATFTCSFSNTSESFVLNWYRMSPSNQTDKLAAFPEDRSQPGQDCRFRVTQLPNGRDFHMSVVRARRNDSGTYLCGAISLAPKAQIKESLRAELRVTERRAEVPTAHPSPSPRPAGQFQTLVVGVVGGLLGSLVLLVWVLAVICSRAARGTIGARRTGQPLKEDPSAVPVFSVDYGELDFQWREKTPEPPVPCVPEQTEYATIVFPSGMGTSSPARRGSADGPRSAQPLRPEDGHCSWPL

IL-2 signal transduction, % of rIL-2, HEK-IL-2-PD-1 cells [1] [%]	IL-12 signal transduction, % of rIL-12, HEK-IL-12-PD-1 cells [1] [%]	IL-2 signal transduction, % of rIL-2, HEK-IL-2 cells [2] [%]	IL-12 signal transduction, % of rIL-12, HEK-IL-12 cells [3] [%]	Binder
35	19	4	< 0.2	IL-2(L18R/Q22E/R38D/K43E/E61R)/IL-12(E59A/F60A)/PD-L1(mut2)-Fc (Fc fusion) chain 1: FTVTVPKDLYVVEYGSNMTIECKFPVEKQLDLAALQVYWMMEDKNIIQFVHGEEDLKVQHSSYRQRARLLKDQLSLGNAALQITDVKLQDAGVYTCLIAYKGADYKRITVKVNAPYNKINQRILVVDPVTSEHELTCQAEGYPKAEVIWTSSDHQVLSGKTTTTNSKREEKLFNVTSTLRINTTTNEIFYCTFRRLDPEENHTAELVIPELPLAHPPNERGGGGSGGGIWELKKDVYVVELDWYPDAPGEMVVLTCDTPEEDGITWTLDQSSEVLGSGKTLTIQVKAAGDAGQYTCHKGGEVLSHSLLLLHKKEDGIWSTDILKDQKEPKNKTFLRCEAKNYSGRFTCWWLTTISTDLTFSVKSSRGSSDPQGVTCGAATLSAERVRGDNKEYEYSVECQEDSACPAAEESLPIEVMVDAVHKLKYENYTSSFFIRDIIKPDPPKNLQLKPLKNSRQVEVSWEYPDTWSTPHSYFSLTFCVQVQGKSKREKKDRVFTDKTSATVICRKNASISVRAQDRYYSSSWSEWASVPCSGGGGSGGGSGGGGSRNLPVATPDPGMFPCLHHSQNLLRAVSNMLQKARQTLEFYPCTSEEIDHEDITKDKTSTVEACLPLELTKNESCLNSRETSFITNGSCLASRKTSFMMALCLSSIYEDLKMYQVEFKTMNAKLLMDPKRQIFLDQNMLAVIDELMQALNFNSETVPQKSSLEEPDFYKTKIKLCILLHAFRIRAVTIDRVMSYLNASGGGGSGGGDKTHTCPPCPAPEDEGGPSVFLFPPKPKDTLMISRTPEVTCVVVDVSHEDPEVKFNWYVDGVEVHNAKTKPREEQYNSTYRVVSVLTVLHQDWLNGKEYKCKVSNKALPAPIEKTISKAKGQPREPQVYVYPPSREEMTKNQVSLTCLVKGFYPSDIAVEWESNGQPENNYKTTPPVLDEDGSFALVSKLTVDKSRWQQGNVFSCSVMHEALHNHYTQKSLSLSPGK chain 2: FTVTVPKDLYVVEYGSNMTIECKFPVEKQLDLAALQVYWMMEDKNIIQFVHGEEDLKVQHSSYRQRARLLKDQLSLGNAALQITDVKLQDAGVYTCLIAYKGADYKRITVKVNAPYNKINQRILVVDPVTSEHELTCQAEGYPKAEVIWTSSDHQVLSGKTTTTNSKREEKLFNVTSTLRINTTTNEIFYCTFRRLDPEENHTAELVIPELPLAHPPNERGGGSGAPTSSSTKKTQLQLEHLRLDLEMILNGINNYKNPKLTDMLTFEFYMPKKATELKHLQCLERELKPLEEVLNLAQSKNFHLRPRDLISNINVIVLELKGSETTFMCEYADETATIVEFLNRWITFCQSIISTLTGGGGSGGGDKTHTCPPCPAPEKKGGPSVFLFPPKPKDTLMISRTPEVTCVVVDVSHEDPEVKFNWYVDGVEVHNAKTKPREEQYNSTYRVVSVLTVLHQDWLNGKEYKCKVSNKALPAPIEKTISKAKGQPREPQVYVLPPSREEMTKNQVSLLCLVKGFYPSDIAVEWESNGQPENRYMTWPPVLDSDGSFFLYSKLTVDKSRWQQGNVFSCSVMHEALHNHYTQKSLSLSPGK
20	25	2	< 0.2	IL-2(R38D/K43E/E61R/Q126T)/IL-12(E59A/F60A)/PD-L1(mut2)-Fc (Fc fusion) chain 1: FTVTVPKDLYVVEYGSNMTIECKFPVEKQLDLAALQVYWMMEDKNIIQFVHGEEDLKVQHSSYRQRARLLKDQLSLGNAALQITDVKLQDAGVYTCLIAYKGADYKRITVKVNAPYNKINQRILVVDPVTSEHELTCQAEGYPKAEVIWTSSDHQVLSGKTTTTNSKREEKLFNVTSTLRINTTTNEIFYCTFRRLDPEENHTAELVIPELPLAHPPNERGGGGSGGGIWELKKDVYVVELDWYPDAPGEMVVLTCDTPEEDGITWTLDQSSEVLGSGKTLTIQVKAAGDAGQYTCHKGGEVLSHSLLLLHKKEDGIWSTDILKDQKEPKNKTFLRCEAKNYSGRFTCWWLTTISTDLTFSVKSSRGSSDPQGVTCGAATLSAERVRGDNKEYEYSVECQEDSACPAAEESLPIEVMVDAVHKLKYENYTSSFFIRDIIKPDPPKNLQLKPLKNSRQVEVSWEYPDTWSTPHSYFSLTFCVQVQGKSKREKKDRVFTDKTSATVICRKNASISVRAQDRYYSSSWSEWASVPCSGGGGSGGGSGGGGSRNLPVATPDPGMFPCLHHSQNLLRAVSNMLQKARQTLEFYPCTSEEIDHEDITKDKTSTVEACLPLELTKNESCLNSRETSFITNGSCLASRKTSFMMALCLSSIYEDLKMYQVEFKTMNAKLLMDPKRQIFLDQNMLAVIDELMQALNFNSETVPQKSSLEEPDFYKTKIKLCILLHAFRIRAVTIDRVMSYLNASGGGGSGGGDKTHTCPPCPAPEDEGGPSVFLFPPKPKDTLMISRTPEVTCVVVDVSHEDPEVKFNWYVDGVEVHNAKTKPREEQYNSTYRVVSVLTVLHQDWLNGKEYKCKVSNKALPAPIEKTISKAKGQPREPQVYVYPPSREEMTKNQVSLTCLVKGFYPSDIAVEWESNGQPENNYKTTPPVLDEDGSFALVSKLTVDKSRWQQGNVFSCSVMHEALHNHYTQKSLSLSPGK chain 2: FTVTVPKDLYVVEYGSNMTIECKFPVEKQLDLAALQVYWMMEDKNIIQFVHGEEDLKVQHSSYRQRARLLKDQLSLGNAALQITDVKLQDAGVYTCLIAYKGADYKRITVKVNAPYNKINQRILVVDPVTSEHELTCQAEGYPKAEVIWTSSDHQVLSGKTTTTNSKREEKLFNVTSTLRINTTTNEIFYCTFRRLDPEENHTAELVIPELPLAHPPNERGGGSGAPTSSSTKKTQLQLEHLLLDLQMILNGINNYKNPKLTDMLTFEFYMPKKATELKHLQCLERELKPLEEVLNLAQSKNFHLRPRDLISNINVIVLELKGSETTFMCEYADETATIVEFLNRWITFCTSIISTLTGGGGSGGGDKTHTCPPCPAPEKKGGPSVFLFPPKPKDTLMISRTPEVTCVVVDVSHEDPEVKFNWYVDGVEVHNAKTKPREEQYNSTYRVVSVLTVLHQDWLNGKEYKCKVSNKALPAPIEKTISKAKGQPREPQVYVLPPSREEMTKNQVSLLCLVKGFYPSDIAVEWESNGQPENRYMTWPPVLDSDGSFFLYSKLTVDKSRWQQGNVFSCSVMHEALHNHYTQKSLSLSPGK
32	27	3	2	IL-2(L18R/Q22E/R38D/K43E/E61R)/PD-L1(mut2)-Fc/IL-12(E59A/F60A) (Fc fusion) chain 1: FTVTVPKDLYVVEYGSNMTIECKFPVEKQLDLAALQVYWMMEDKNIIQFVHGEEDLKVQHSSYRQRARLLKDQLSLGNAALQITDVKLQDAGVYTCLIAYKGADYKRITVKVNAPYNKINQRILVVDPVTSEHELTCQAEGYPKAEVIWTSSDHQVLSGKTTTTNSKREEKLFNVTSTLRINTTTNEIFYCTFRRLDPEENHTAELVIPELPLAHPPNERGGGGSGGGDKTHTCPPCPAPEDEGGPSVFLFPPKPKDTLMISRTPEVTCVVVDVSHEDPEVKFNWYVDGVEVHNAKTKPREEQYNSTYRVVSVLTVLHQDWLNGKEYKCKVSNKALPAPIEKTISKAKGQPREPQVYVYPPSREEMTKNQVSLTCLVKGFYPSDIAVEWESNGQPENNYKTTPPVLDEDGSFALVSKLTVDKSRWQQGNVFSCSVMHEALHNHYTQKSLSLSPGKGGGGSGGGIWELKKDVYVVELDWYPDAPGEMVVLTCDTPEEDGITWTLDQSSEVLGSGKTLTIQVKAAGDAGQYTCHKGGEVLSHSLLLLHKKEDGIWSTDILKDQKEPKNKTFLRCEAKNYSGRFTCWWLTTISTDLTFSVKSSRGSSDPQGVTCGAATLSAERVRGDNKEYEYSVECQEDSACPAAEESLPIEVMVDAVHKLKYENYTSSFFIRDIIKPDPPKNLQLKPLKNSRQVEVSWEYPDTWSTPHSYFSLTFCVQVQGKSKREKKDRVFTDKTSATVICRKNASISVRAQDRYYSSSWSEWASVPCSGGGGSGGGSGGGGSRNLPVATPDPGMFPCLHHSQNLLRAVSNMLQKARQTLEFYPCTSEEIDHEDITKDKTSTVEACLPLELTKNESCLNSRETSFITNGSCLASRKTSFMMALCLSSIYEDLKMYQVEFKTMNAKLLMDPKRQIFLDQNMLAVIDELMQALNFNSETVPQKSSLEEPDFYKTKIKLCILLHAFRIRAVTIDRVMSYLNAS chain 2: FTVTVPKDLYVVEYGSNMTIECKFPVEKQLDLAALQVYWMMEDKNIIQFVHGEEDLKVQHSSYRQRARLLKDQLSLGNAALQITDVKLQDAGVYTCLIAYKGADYKRITVKVNAPYNKINQRILVVDPVTSEHELTCQAEGYPKAEVIWTSSDHQVLSGKTTTTNSKREEKLFNVTSTLRINTTTNEIFYCTFRRLDPEENHTAELVIPELPLAHPPNERGGGSGAPTSSSTKKTQLQLEHLRLDLEMILNGINNYKNPKLTDMLTFEFYMPKKATELKHLQCLERELKPLEEVLNLAQSKNFHLRPRDLISNINVIVLELKGSETTFMCEYADETATIVEFLNRWITFCQSIISTLTGGGGSGGGDKTHTCPPCPAPEKKGGPSVFLFPPKPKDTLMISRTPEVTCVVVDVSHEDPEVKFNWYVDGVEVHNAKTKPREEQYNSTYRVVSVLTVLHQDWLNGKEYKCKVSNKALPAPIEKTISKAKGQPREPQVYVLPPSREEMTKNQVSLLCLVKGFYPSDIAVEWESNGQPENRYMTWPPVLDSDGSFFLYSKLTVDKSRWQQGNVFSCSVMHEALHNHYTQKSLSLSPGK
